This note sets out measurements from paper PMC3317499.

The labels stand for the following.
B1: Myc-Mal-TIR wild type (TIR domain of human MyD88 adaptor-like protein, residues 79-221, double-tagged with His6 and Myc) [human] / GST-Mal-TIR (TIR domain of human Mal, residues 79-221, GST fusion) [human] (parent)
chain 1: SSRWSKDYDVCVCHSEEDLVAAQDLVSYLEGSTASLRCFLQLRDATPGGAIVSELCQALSSSHCRVLLITPGFLQDPWCKYQMLQALTEAPGAEGCTIPLLSGLSRAAYPPELRFMYYVDGRGPDGGFRQVKEAVMRYLQTLS
chain 2: B1 chain 1

This test covers variants of B1. The experiment in a line: GST pull-down, quantified Western blot. The note with it: with GST-Mal-TIR (TIR domain of human Mal, residues 79-221, GST fusion) [human]; n = 3 separate experiments; parent: 1; read off a plot.
In the case of chain 1 R114A, the ratio to parent was 0.91.
Turning to chain 1 Y81A, the ratio to parent turned out to be 0.41.
In the case of chain 1 W78A it was 0.6.
For chain 1 D9A, the ratio to parent stood at 1.2.
